Assay: yeast display, Sf9 membrane polyspecificity reagent, FACS + sequencing; frameworks hold sequencing errors
Summary of the method: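 A synthetic nanobody library was expressed on Saccharomyces cerevisiae BJ5465 by galactose induction for 36–48 hours. The library was stained for 1 hour at 4 °C with 10% biotinylated, detergent-solubilized Sf9 membrane reagent and enriched with streptavidin microbeads before FACS. Low and high (top ~1%) gates were set on anti-HA fluorescence for expression and streptavidin fluorescence for reagent binding, and each polyreactivity label reflects the gate of origin.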

Sequence: QVQLVESGGGLVEAGGSLRLSCAASGSTFSVNAMGRYRQAPGKERELVAAISYRGGSTYYADSVKGRFTISRDNAKNTVYFQMNSLKPEDTAVYYCNAQRYRPGYWYDYWGQGTQVTVSS
- polyreactivity (PSR sort gate): high polyreactivity

Sequence: QVQLVESGGGLVQAGGSLRLSCAASGRTFTFYTMGWYRQAPGKERELVAAITSGGSTYYADSVKGRFTISRDNAKNTVYLQMNSLKPEDTAVYYCAAKYYYTYYYWGQGTQVTVSS
- polyreactivity (PSR sort gate): high polyreactivity

Sequence: QVQLVESGGGLDQAGGSLRLSCAASGSIFASNAMGWYRQAPGKERELVAAINSGDSTNYADSVKGRFTISRDNAKNTVYLQMNSLKPEDTAVYYCARGLEERYDYWGQGTQVTVSS
- polyreactivity (PSR sort gate): low polyreactivity

Sequence: QVQLVESGGGLVQAGGSLRLSCAASGRIFWAYAMGWYRQAPGKERELVAAINGSGGSTNYADSVKGRFTISRDNAKNTVYLQMNSLIPEDTAVYYCAADWSLRLYDYWGQGTQVTVSS
- polyreactivity (PSR sort gate): low polyreactivity

Sequence: QVQLVESGGGLVQAGGSLRLSCAASGSTFGFYAMGWYRQAPGKERELVAAITGSGGSTYYADSVKGRFTISRDNAKNTVYLQMNSLKPEDTAVYYCNRYGVRYYRYDYWGQGTQVTVSS
- polyreactivity (PSR sort gate): high polyreactivity

Sequence: QVQLVESGGGLVQARGSLRVSCAASGSTFGRYAMGWYRQAPGKDRELVAAITGSGGSTYYADSVKGRFTISRDNAKNTVYLHMNSLKPEDTAVYYCAAPVDYRRYEYEYWGQGTQVTVSS
- polyreactivity (PSR sort gate): low polyreactivity

Sequence: QVQLVESGGGLVQAGGSLRLSCAASGFIFSSYAMGWYRQAPGKERELVAAINSSGGRTYYADSVKGRFTISRDNAKNTVYLQMNSLKPEDTAVYYCAAVVWSYYVGDDYWGQGTQVTVSS
- polyreactivity (PSR sort gate): high polyreactivity

Sequence: QVQLKENGVGLVQAGGSLRMSCAASGYISHADEMGWNSQAPGKEHELVASISNGGSTNYADSVKGRFTISRDNAKNSVYLQMNSLKSEDTAVYYCAAWTGQVDINYYWGQGSQVTVSS
- polyreactivity (PSR sort gate): low polyreactivity

Sequence: QVQLVESGGGLVQAGGSLRLSCAASGFIFSLYAMGWYRQAPGKERELVAVITWSDGRTYYADSVKGRFTISRDNAKNTVYLQMNSLKQEDTAVYYCAAADWITEYDYWGQGTQVTVSS
- polyreactivity (PSR sort gate): low polyreactivity

Sequence: QVQLVESGGGLVQAGGSLRLSCAASGRTFRYYTMGWYRQAPGKEREFVAAISSTGGTYYADSVKGRFTISRDNAKNTVYLQMNSLKPEDTAVYYCNADTIYYAGDFRYDYWGQGTQVTVSS
- polyreactivity (PSR sort gate): low polyreactivity

Sequence: QVQLVESGGGLVQAGGSLRLSCAASGLTSVTYAMGWYRQAPGKERELVAAITSRAGSTYYADSVKGRFTISRDNAKNTVYLQMNSLKPEDTAVYYCAKDIIRKVYAGYVGRYDYWGQGTQVTVSS
- polyreactivity (PSR sort gate): low polyreactivity

Sequence: QVQLVESGGGLVQAGGSLRLSCAASGRIFFRNAMGWYRQAPGKERELVAAITYSGGSTYYADSVKGRFTISRDNAKNTVYFQMNSLKPEDTAVYYCYADYYPYGEYDYWGQGTQVTVSS
- polyreactivity (PSR sort gate): high polyreactivity

Sequence: QVQLVESRGGLVQAGGSLRLSCAASGRIILIYAMGWYRQAPGKERELVGDISKGGSSTYYADSVKGRVTISRDNAQNTVYLQMNSLKPEDTAVYYCAASGRWTGRQAAYDYWGQGTQVTVSS
- polyreactivity (PSR sort gate): high polyreactivity

Sequence: QVQLVESGGGLVQAGGSLRLSCAASGFTFGVYAMGWYRQAPGKERELVAAISTTVGSTYYADSVKGRFTISRDNAKNTVYLQMNSLKPEDTAVYDCAAEYTGYINYYIYEYWGQGTQVTVSS
- polyreactivity (PSR sort gate): low polyreactivity

Sequence: QVQLVESGGGLVQAGGSLRLSCAASGSTFTKYAMGWYRQAPGQERELVAAITASGGNTYYADSVKGRFTISRDNAKNTVYLQMNSLKPEDTAVYSCAAVTGLFYHPFYKYNYWGQGTQVTVSS
- polyreactivity (PSR sort gate): high polyreactivity

Sequence: QVQLVESGGGLVQAGGSLRLSCAASGNTLPQNAMGWYRQAPGKERELVAAISRSGGSTYYADSVKGRFTISRDNAKNTVYLQMNSLKPEDTAVYYCAAKLTVSGYRYGYWGQGTQVTVSS
- polyreactivity (PSR sort gate): high polyreactivity

Sequence: QVQLVESGGGLVQAGGSLRLSCAASGSIFRGNAMGWYRQAPGKERELVAAISGSAGRTYYADSVKGRFTISRDNAKNTVYLQMNSLKPEDTAVYYCAADSFKGYDYWGQGTQVTVSS
- polyreactivity (PSR sort gate): high polyreactivity

Sequence: QVQLVESGGGLVQAGGSLRLSCAASGIIFESYAMGCYRQAPGKERELVAAISSRGGSTYYADSVKGRFTISRDNSKNTVYLQMNSLKPEDTAVYYCAADVAAGVSSYPTKYSYDYWGQGTQVTVSS
- polyreactivity (PSR sort gate): low polyreactivity

Sequence: QVQLVESGGGLVQAGGSLRLSCAASGRTFSRYVMGWYRQAPGKERELVATISRSGGSTFYADSVKGRFTISRDTAKNTVYLQMNSLKPEDTAVYYCNKKVQGYQVTYGYCGQGTQVTVSS
- polyreactivity (PSR sort gate): high polyreactivity

Sequence: QVQLVESGGGLVQAGGSLRLSCAASGSIFDPYAMGWSRQAPGKEREFVAAISYSAGSTYYADSVKGRFTISRDNAKNTVYLQMNSLKPEATAVYYCAARYTHTSPSIRSWAYYYWGQGTQVTVSS
- polyreactivity (PSR sort gate): high polyreactivity

Sequence: QVQLVESGGGLVQAGGSLRLSCAASGRTFWYNAMGWYRQAPGKERELVATINSVGSTNYADSVKGRFTISRDNAKNTVYLQMNSLKPEDTAVYDCNAGYGYVRGRKGGAIVKYYYWGQGTQVTVSS
- polyreactivity (PSR sort gate): high polyreactivity

Sequence: QVQLVESGGGLVQAGGSLRLSCAASGFTLDWYAKGWYRQAPGKERELVAAISSSGRTNYADSVKGRFTISRDNAKNTVYLQMNSLKPEDTAVYYCNRDYPYIWHKGARYWHENDYWGQGTQVTVTS
- polyreactivity (PSR sort gate): low polyreactivity

Sequence: QVQLVESGGGLVQAGGSLRLSCAASGSTFERYVMGWYRQRQGKKWSWLPVLNHNGGSTYYADSVKGRFTISRDNAKNSVYLQMNSRKPEYTAVYYCAKDGLNESQFPGNLRDYWGQGTQVNVSS
- polyreactivity (PSR sort gate): low polyreactivity

Sequence: QVQLVESGGGLVQAGGSLRLSCAASGRTFLRYRMGWYRQAPGKERELVATISRSGGGTTYADSVKGRFTISRYNAKNTVYLQMNSLKPEDTAVYYCNRDQTYPYQYNRWVGQYKYDYWGQGTQVTVSS
- polyreactivity (PSR sort gate): low polyreactivity

Sequence: QVQLVESGGGLVQAGGSLRLSCAASGFIFGGYAMGWYRQAPGKERELVAAITWSGGNTYYADSVKGRFTISRDNAKNTVYLQMNSLKPEDTAVYYCAADYWTKYGYWGQGTQVTVSS
- polyreactivity (PSR sort gate): low polyreactivity

Sequence: QVQLVESGGGLVQAGGSLRLSCAASGRIFYANDMGWYRQAPWKERELVAAITNTVSTTYADSVKGRFTISRDNAKNTVYLQMNSLKPEDTAVYYCNGDDPYVPKADMGYWGQGTQVTVSS
- polyreactivity (PSR sort gate): low polyreactivity

Sequence: QVQLVESGGGLVQAGGSLRLSCAASGIIFGIYDMGWSRQAPGKERELVAAIRRSGGSTYYADSVKGRFTISRDNAKNTVYLQMNSLKPEDTAVYYCAATRHSRVRGGDYWGQGTQVTVSS
- polyreactivity (PSR sort gate): low polyreactivity

Sequence: QVQLVESGGGLVQAGGSLRLSCAASGSTFASYAMGWYRQAPGKERELVAAISSSGARTYYADSVKGRFTISRDNAKNTVYLQMNSLKPEDTAVYYCATDSKITETSLRYDYWGQGTQVTVSS
- polyreactivity (PSR sort gate): high polyreactivity

Sequence: QVQRVESGGGLVQAGGSLRLSSAASGSTFQEYAMGWYSQAPGKERELVASIRWSGGRTYYADSVKGRFTISRDQAKNTVELQMKSLKPEDTAVYYCNKDYYITLHESDGNGGEMDYWGQGTQVTVSS
- polyreactivity (PSR sort gate): low polyreactivity

Sequence: QVQLVESGGGLVQAGGSLRLSCAASGSTFYFNAMGWYRQAPGKEREFVAGIRYSGSSTYYADSVKGRFTISRDNAKNTVYLQMNSLKPEDTAVYYCAAERWCYTVRGYGYWGHGTQVTVSS
- polyreactivity (PSR sort gate): high polyreactivity

Sequence: QVQLVESGGGLVQAGGSLRLSCAASGRIFDLYTMGWYRQAPGKERELVAAIRWSDGSTYYADSVKGRFTISRDNAKNTVYLQMNSLKPEDTAVYYCAADSRTSYYNDDYDYWGQGTQVTVSS
- polyreactivity (PSR sort gate): low polyreactivity

Sequence: QVQLVESGGGLVQAGGSLRLTCAASGFIFPWNAMAWFRQAPRKERELVAAISFSGGSTYYADSVKGRFTISRDNAKNTVYLQMNSLKPEDTAVYYCAKRTWDLRRTRHYYWGQGTQVTVSS
- polyreactivity (PSR sort gate): low polyreactivity

Sequence: QVQLVESGGGLVQAGGSLRLSCAASGGTFLPNAMGWYRQAPWKERELVAAITSGGRTNYADSVKGRFTISRDNAKNTVYFQMNSLKPEDTAVYYCAARVRGYPTRPIPYYYWGQGTQVTVSS
- polyreactivity (PSR sort gate): high polyreactivity

Sequence: QEQLQESGGGLVQAGGTLRLSCSASGTISPLPAMGWYRQSPGKEREFVAGIDTGAITNYADSVKGRFTISRDNAKNTVYLQMNSLKPEDTAVYYCAVFPAAYDYYERYYTYWGQGTQVTVCS
- polyreactivity (PSR sort gate): low polyreactivity

Sequence: QAQLVESGGGLVQAGGSLRLSCAASGSIFVAYDKGWYREAPWKERELVAAINFDGTSTYYADSVKGRFTISRDNAKNTVYLQMNSLKPEDTAVYYCNKRVSPTFTGQYDYWGQGTQVTVSS
- polyreactivity (PSR sort gate): low polyreactivity

Sequence: QVQLVESGGGLVQAGGSLRLSCPASGSIFNSYAMGWYRQAPGKERELVAAISSGGSTNYADSVKGRFTISRDNAKNTVYLQMNSLKPEDTAVYYCAKGSRKSGYKYYHGRVWFGYWGQGTQVTVSS
- polyreactivity (PSR sort gate): high polyreactivity

Sequence: QVQLEESGGGLVQAGGRLRLSCAASGSILTAYAMGWYRQAPGKERELVAASNFSGDNTYYADSVKGRFTISRDNAKNTVYLQMNSLKPQDTALYYCNADGRYAYVWYDYWGQGTQVTVSS
- polyreactivity (PSR sort gate): low polyreactivity

Sequence: QVQLVESGGGLVKAGGSLRLSCAASGSTFPYYAMGWYRQAPGTEREFVAAISSSGGSTYYADSVKGRFTISRDNAKNTVYLQMNSLKPEDTAVYYFAAQGARRNYYRYGTYTNRRYDYWGQGTQVTVSS
- polyreactivity (PSR sort gate): high polyreactivity

Sequence: QVQLVESGGGLVQAGGSLRLSCAASGSTFYWYAMGWYRQAPGKERELVASISWSGGRTYYADSVKGRFTISRDTAKNTVYLQMNSLKPEDTAVYYCAARRKGRYYYWGQGTQVTVSS
- polyreactivity (PSR sort gate): high polyreactivity

Sequence: QVQLVESGGGLVQAGGSLRLSCAASGRTFTGNTMGWYRQAPGKERELVAAISSSGGRTYYADSVKGRFTISRDNAKNTVYLQMNSLKQVDTAVYYCNATIWRTQYGYWGQGTQVTVSS
- polyreactivity (PSR sort gate): high polyreactivity

Sequence: QVQLVESGGGLVQAGGSLRLSCAASGLIFIIYTMGWYRQAPGKERELVAAITRRGGITYYADSVKGRFTISRDYAKNTVYLQMNSLKPEDTAVYYCAVVRPYNIWYDYWGQGTQVTVSS
- polyreactivity (PSR sort gate): low polyreactivity

Sequence: QVQLVESGGGLVQAGGSLRLSCAAYGRTFTWYSMGWYRQAPGKERELVAAISKSGGSTYYSDSVKGRFTISRDNAKITVYLQMNSLKPEDTAVYYCNAEFYGYFLGYGYWGQGTQVSVSS
- polyreactivity (PSR sort gate): low polyreactivity

Sequence: QVQLVESGGALVQAGGSLRLSCAASGFIFSYYVMGWYRQAPGKERELVAAITTSGDSTYYADSVKGRFTISRDNAKNTVYLQMNSLKPEDTAVYYCAADIYYETIWHYGYWGQGTQVTVSS
- polyreactivity (PSR sort gate): high polyreactivity

— the nanobody polyreactivity screen of Harvey et al. (2022)
